Source: US20240293504A1

Molecular target: CD91 (mouse) (UniProt Q91ZX7)
Assay: cell-based or functional assay

Sequence of UniProt Q91ZX7 (Q91ZX7 20-4545): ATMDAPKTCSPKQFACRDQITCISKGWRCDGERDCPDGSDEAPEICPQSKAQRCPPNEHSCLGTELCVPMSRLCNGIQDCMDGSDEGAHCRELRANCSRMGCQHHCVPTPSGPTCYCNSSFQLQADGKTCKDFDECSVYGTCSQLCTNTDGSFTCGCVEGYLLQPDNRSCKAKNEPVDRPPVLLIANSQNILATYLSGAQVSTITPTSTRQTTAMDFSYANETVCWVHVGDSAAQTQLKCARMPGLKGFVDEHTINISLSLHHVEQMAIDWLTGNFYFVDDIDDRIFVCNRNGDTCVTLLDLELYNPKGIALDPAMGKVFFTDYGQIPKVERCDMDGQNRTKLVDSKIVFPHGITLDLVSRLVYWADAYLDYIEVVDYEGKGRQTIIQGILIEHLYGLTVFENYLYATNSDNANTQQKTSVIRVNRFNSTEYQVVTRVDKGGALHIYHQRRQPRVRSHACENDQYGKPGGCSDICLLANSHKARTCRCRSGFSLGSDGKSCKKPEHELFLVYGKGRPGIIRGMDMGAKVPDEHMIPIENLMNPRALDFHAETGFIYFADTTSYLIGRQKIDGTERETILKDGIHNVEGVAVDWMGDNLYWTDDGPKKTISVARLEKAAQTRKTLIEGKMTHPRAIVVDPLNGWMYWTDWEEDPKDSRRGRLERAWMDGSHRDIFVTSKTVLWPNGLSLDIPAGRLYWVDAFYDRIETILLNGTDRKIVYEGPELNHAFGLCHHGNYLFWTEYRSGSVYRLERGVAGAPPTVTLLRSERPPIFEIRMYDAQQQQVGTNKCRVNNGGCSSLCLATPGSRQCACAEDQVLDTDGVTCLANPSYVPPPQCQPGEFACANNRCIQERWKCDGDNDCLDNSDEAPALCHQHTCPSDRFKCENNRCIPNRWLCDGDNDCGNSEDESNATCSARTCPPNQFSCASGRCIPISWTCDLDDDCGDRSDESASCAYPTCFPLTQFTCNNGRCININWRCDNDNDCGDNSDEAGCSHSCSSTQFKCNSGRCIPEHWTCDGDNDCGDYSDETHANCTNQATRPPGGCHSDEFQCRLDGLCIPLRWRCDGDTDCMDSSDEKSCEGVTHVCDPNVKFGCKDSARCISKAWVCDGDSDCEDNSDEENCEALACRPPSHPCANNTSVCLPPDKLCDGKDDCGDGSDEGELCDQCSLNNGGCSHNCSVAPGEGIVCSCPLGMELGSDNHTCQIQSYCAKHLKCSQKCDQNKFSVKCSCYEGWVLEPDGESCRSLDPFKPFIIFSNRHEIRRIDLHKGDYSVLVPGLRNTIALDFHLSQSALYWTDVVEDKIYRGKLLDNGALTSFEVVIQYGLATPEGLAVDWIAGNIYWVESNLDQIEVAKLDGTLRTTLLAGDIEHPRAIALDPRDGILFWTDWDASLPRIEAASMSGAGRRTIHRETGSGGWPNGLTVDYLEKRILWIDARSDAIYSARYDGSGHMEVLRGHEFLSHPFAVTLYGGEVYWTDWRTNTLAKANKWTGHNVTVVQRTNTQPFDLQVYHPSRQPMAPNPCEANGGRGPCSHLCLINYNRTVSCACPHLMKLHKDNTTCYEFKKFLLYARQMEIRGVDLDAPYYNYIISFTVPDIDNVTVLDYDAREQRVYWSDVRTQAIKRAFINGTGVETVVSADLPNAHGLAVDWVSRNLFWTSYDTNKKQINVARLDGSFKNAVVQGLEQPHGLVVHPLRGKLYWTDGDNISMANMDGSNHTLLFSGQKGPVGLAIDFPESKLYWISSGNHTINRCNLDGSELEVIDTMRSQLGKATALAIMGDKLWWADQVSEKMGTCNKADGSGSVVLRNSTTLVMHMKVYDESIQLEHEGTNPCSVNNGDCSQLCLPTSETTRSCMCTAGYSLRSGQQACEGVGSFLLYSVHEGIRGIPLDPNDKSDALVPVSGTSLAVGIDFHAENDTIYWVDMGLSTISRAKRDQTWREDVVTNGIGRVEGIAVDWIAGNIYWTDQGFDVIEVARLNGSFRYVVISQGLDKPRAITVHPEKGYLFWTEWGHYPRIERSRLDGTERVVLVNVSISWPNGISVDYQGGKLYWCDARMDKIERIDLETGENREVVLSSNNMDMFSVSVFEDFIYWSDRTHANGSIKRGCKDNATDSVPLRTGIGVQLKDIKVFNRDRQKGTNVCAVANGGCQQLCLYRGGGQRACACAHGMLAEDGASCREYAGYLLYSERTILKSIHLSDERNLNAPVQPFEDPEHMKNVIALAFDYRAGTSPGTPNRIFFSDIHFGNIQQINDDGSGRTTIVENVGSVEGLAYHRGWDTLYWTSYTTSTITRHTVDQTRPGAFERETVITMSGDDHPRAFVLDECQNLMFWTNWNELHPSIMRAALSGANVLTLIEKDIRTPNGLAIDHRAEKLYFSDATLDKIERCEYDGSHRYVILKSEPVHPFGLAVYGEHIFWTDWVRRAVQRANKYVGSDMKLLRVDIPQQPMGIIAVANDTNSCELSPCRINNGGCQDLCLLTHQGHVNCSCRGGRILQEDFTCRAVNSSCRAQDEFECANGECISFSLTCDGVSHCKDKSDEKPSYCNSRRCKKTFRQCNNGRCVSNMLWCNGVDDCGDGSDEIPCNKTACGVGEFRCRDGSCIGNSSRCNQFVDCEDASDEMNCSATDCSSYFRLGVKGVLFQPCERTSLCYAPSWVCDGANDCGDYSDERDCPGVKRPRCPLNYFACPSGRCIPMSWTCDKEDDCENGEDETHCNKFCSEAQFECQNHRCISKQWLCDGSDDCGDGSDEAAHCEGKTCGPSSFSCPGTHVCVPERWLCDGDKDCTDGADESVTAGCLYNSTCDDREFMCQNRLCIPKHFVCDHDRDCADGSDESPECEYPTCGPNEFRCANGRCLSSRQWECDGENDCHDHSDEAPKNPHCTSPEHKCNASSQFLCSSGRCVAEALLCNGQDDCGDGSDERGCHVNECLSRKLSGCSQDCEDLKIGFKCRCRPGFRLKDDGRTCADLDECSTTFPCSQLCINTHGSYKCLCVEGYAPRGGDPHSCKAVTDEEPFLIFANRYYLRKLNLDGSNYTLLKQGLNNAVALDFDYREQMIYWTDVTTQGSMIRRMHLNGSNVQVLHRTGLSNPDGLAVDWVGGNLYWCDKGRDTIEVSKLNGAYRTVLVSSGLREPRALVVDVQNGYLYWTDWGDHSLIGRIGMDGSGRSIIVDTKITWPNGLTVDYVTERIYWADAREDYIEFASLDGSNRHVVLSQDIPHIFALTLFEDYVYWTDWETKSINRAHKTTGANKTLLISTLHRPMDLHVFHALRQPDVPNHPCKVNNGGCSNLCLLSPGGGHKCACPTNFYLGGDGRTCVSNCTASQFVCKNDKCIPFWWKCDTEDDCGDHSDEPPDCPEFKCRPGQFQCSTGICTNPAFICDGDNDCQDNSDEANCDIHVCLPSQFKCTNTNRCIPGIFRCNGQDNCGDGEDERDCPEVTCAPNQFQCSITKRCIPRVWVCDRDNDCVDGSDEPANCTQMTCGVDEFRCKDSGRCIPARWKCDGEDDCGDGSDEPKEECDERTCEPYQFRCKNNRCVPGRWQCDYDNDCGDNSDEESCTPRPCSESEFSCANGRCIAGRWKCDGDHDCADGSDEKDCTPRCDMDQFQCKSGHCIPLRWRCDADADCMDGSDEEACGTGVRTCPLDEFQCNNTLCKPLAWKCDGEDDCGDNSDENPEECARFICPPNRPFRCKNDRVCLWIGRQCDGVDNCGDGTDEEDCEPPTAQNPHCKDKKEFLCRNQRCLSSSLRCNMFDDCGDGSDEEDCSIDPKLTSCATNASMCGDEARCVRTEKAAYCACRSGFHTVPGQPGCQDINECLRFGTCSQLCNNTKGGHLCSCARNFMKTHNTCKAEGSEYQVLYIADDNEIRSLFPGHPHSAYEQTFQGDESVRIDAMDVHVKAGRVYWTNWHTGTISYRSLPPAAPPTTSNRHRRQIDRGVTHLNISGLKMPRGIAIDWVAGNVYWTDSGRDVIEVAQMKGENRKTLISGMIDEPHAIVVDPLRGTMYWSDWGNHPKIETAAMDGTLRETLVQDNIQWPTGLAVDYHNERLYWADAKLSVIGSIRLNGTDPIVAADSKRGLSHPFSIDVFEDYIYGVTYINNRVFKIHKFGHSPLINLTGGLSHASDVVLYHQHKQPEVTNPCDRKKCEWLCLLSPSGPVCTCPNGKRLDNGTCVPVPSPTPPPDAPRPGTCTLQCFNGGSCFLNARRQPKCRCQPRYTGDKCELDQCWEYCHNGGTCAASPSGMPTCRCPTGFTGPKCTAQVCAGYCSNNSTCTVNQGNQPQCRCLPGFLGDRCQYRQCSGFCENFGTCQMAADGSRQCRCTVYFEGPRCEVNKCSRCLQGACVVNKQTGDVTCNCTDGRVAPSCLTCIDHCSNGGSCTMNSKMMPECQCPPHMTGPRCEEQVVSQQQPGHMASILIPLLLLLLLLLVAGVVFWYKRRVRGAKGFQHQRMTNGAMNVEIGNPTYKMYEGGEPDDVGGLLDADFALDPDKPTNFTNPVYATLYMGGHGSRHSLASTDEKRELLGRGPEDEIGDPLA

IFN alpha MFI (Fold Change), RAW264.7 M1 macrophages pulsed with calreticulin 10 ug/ml for 20 min: 7.5 fold
IFN beta MFI (Fold Change), RAW264.7 M1 macrophages pulsed with calreticulin 10 ug/ml for 20 min: 7 fold
IL-12 MFI (Fold Change), RAW264.7 M1 macrophages pulsed with calreticulin 10 ug/ml for 20 min: 3.5 fold
IL-15 MFI (Fold Change), RAW264.7 M1 macrophages pulsed with calreticulin 10 ug/ml for 20 min: 3.5 fold
Substance: calreticulin (CRT) (ligand)
